Assay results: US20160052980A1, “CRP40 FRAGMENTS FOR THE TREATMENT OF NEUROLOGICAL DISORDERS” (CRP40 INC., priority 2013, published 2016)
“Also recorded” adds a separate entry of the source.

Columns and labels:
SH-SY5Y cells [1] = assay: OxiSelect Intracellular ROS Assay, H2O2-induced oxidative stress in transfected cells; type: cell-based; conditions: overexpression in transfected SH-SY5Y cells; 500 μM H2O2; normal cells had increased ROS
Description: The ability of CRP40- and mortalin-transfected SH-SY5Y cells to protect against the harmful effects of mitochondrial ROS in comparison to normal non-transfected SH-SY5Y cells was measured using the OxiSelect™ Intracellular ROS Assay Kit (Green Fluorescence). H2O2 treatment was used to induce oxidative stress in the assay. Increased fluorescence in this assay corresponded to greater ROS levels.

SH-SY5Y cells [2] = assay: ATP-Glo Bioluminometric Cell Viability Assay with MG-132 proteasomal inhibitor; type: cell-based; conditions: for preservation of ATP levels and cell viability under proteasomal stress: overexpression in SH-SY5Y cells, MG-132; for cell viability in basal condition versus normal non-transfected SH-SY5Y cells: no MG-132, p<0.0001
Text: The ability of CRP40- and mortalin-transfected SH-SY5Y cells to maintain mitochondrial homeostasis, specifically energy production and ATP levels, was examined using the ATP-Glo™ Bioluminometric Cell Viability Assay Kit. MG-132 was used to inhibit proteasomal function and cause increased oxidative stress, which would compromise mitochondrial function, as well as the processes of energy production. The quantitation of ATP levels was thus used as a measure of cell viability.
FIG. 7 summarizes the results of the adenosine triphosphate assays. […] Mortalin was used as a positive control in this assay. […] The data are representative of mean±S.D. of experiments for each condition performed twice, in triplicate.

[3] = Competitive radioligand binding of [3H]-DA in the presence of cold apomorphine; conditions: 1 nM radioligand, 10 μg protein, range of unlabeled apomorphine
Description: (§1) Methods. The ability of cold DA to displace bound tritiated dopamine ([3H]-DA) in CRP40, P2P4, or heat-shock protein 47 (a control heat-shock protein that plays a role in collagen synthesis) was assessed by competitively binding [3H]-DA in the presence of different concentrations of unlabeled DA or apomorphine (in 0.1% ascorbic acid) using the same methodology as in (Gabriele et al., 2009). […] At the end of incubation, the bound and free ligands were separated by vacuum filtration through Whatman GF/B filters. The filters were washed with 3×5 ml of Tris-EDTA buffer and the radioactive counts were determined on a Beckman scintillation counter. The Assay Buffer was prepared by adding the following components to 500 ml of double distilled water: 25 ml 1M Tris-HCl (pH 8; 50 mM), […] (1 mM), 100 mM PMSF in ethanol (0.1 mM), 0.508 g MgCl2·6H2O (5 mM), 0.0077 g DTT (0.1 mM), 0.050 g Bacitracin (100 μg/ml), and 0.0025 g
(§2) Soybean Trypsin (5 μg/ml). The final pH was adjusted to 7.4. The filtration Buffer was prepared by adding the following components to 2 L of double distilled water: 100 ml 1M Tris-HCl (pH 8; 50 mM), and 4 ml 500 mM EDTA (1 mM). The final pH was adjusted to 7.4. Statistical analysis of the data was performed utilizing Graph Pad Prism 6.0 software. […]

6-OHDA rats = assay: 6-OHDA rat model, apomorphine-induced rotational behaviour; type: in vivo; conditions: injection in left striatum; apomorphine 0.5 mg/kg s.c.; rotations counted over 10 minutes; versus controls
Description: 6-Hydroxydopamine (or 6-OHDA) animal model of dyskinesia and oxidative stress: The 6-OHDA model was chosen for this study as this model is characterized by oxidative stress and degeneration of DA neurons, similar to the condition in human idiopathic PD patients and is a well-known preclinical animal model of PD.
6-OHDA animals, male Sprague-Dawley rats from Charles River (Raleigh, N.C., USA), were prepared by hemi-lateral lesioning of the A9 dopaminergic pathway by injecting 6-OHDA toxin in the substantia nigra par compacta (SNc) region of the rat brain. This unilateral nigrostriatal degeneration cause assymetry in motor behaviours due to imbalanced dopimanergic activity between striata. […] Baseline rotational behavior and locomoter testing were performed before surgical intervention.
The protocol for lesioning is synonymous with our 6-OHDA stereotaxic injection protocol found in Modi et al., (1996). Rats were sent to the McMaster University animal facility and allowed to acclimatize to the colony room for 1 week following arrival. Each rat was handled by the same researcher daily for 7 days before the start of the experiment. Animals were then tested for baseline apomorphine-induced rotations (tested during light hours), and locomotor activity (tested during dark hours) under apomorphine challenge treatment. Animals were then split into groups and injected with CRP40, CRP40 fragments and peptides, and controls. Animals were housed and tested in compliance with the guidelines described in the Guide to the Care and Use of Experimental Animals (Canadian Council on Animal Care, 1984; 1993).
6-OHDA rats were injected in the left striatum with one of the various fragments via stereotaxic surgery. […] Coordinates for striatal injections of treatment are as follows: A/P +0.7 mm, M/L +3.0 mm, and D/V −5.0 mm. A 25 μl Hamilton syringe with a 22 gauge 2 inch blunt needle was used to inject treatments at a rate of 1 μl/min.
Apomorphine injection causes full body rotational behaviour in the direction contralateral to the 6-OHDA lesion. The total number of rotations per fixed time period is used as a measure of improving or worsening symptomology. A holding chamber in which the animal is confined to a circular shaped floor is used to count rotations, as this is an optimal arrangement for these experiments compared to an open field box. 0.5 mg/ml Apomorphine (Sigma: A4393) was dissolved in 0.9% saline with 0.1% ascorbic acid. Animals were injected subcutaneously with apomorphine (0.5 mg/kg body weight). Animals were placed in a clear plastic cylindrical holding tank and allowed 5 minutes for habituation. Following habituation, 10 minutes was allotted and a cell counter was used to record the number of rotations.

[4] = Competitive radioligand binding of [3H]-DA in the presence of cold DA; conditions: 1 nM radioligand, 10 μg protein, range of unlabeled DA
Description: as §1, §2

Molecule	ROS levels under oxidative stress versus normal non-transfected SH-SY5Y cells (SH-SY5Y cells [1])	preservation of ATP levels and cell viability under proteasomal stress (SH-SY5Y cells [2])	cell viability in basal condition versus normal non-transfected SH-SY5Y cells (SH-SY5Y cells [2])	specific binding of [3H]-DA in competition with cold apomorphine (apomorphine binding) [3]	rotational behaviour in the 6-OHDA rat model (6-OHDA rats)	specific binding of [3H]-DA in competition with cold DA (dopamine binding) [4]
mortalin: ubiquitously expressed molecular chaperone of 649 amino acids encoded by HSPA9B; positive control in the ATP assay [reference compound]	partially preserves mitochondrial homeostasis and ROS levels	helps to maintain intracellular ATP levels and energy production; also recorded: partially preserve ATP levels and cell viability	significantly lower			
P2P4: SEQ ID NO:5, 60-amino acid fragment spanning amino acids 95-154 of full-length CRP40 (6.6 kDa)				does not bind; also recorded: do not bind apomorphine	reduction of rotational behavior; also recorded: alleviate rotational symptoms; also recorded: as effective as full-length CRP40	does not bind dopamine at all
P1P5: SEQ ID NO:4, P1P5 fragment of human CRP40 (27 kDa) (protein, listed as Homo sapiens) MDSSGPKHLNMKLTRAQFEGIVTDLIRRTIAPCQKAMQEVSKSDIGEVILVGGMTRMPKVQQTVQGLFGRAPSKAVNPDEAVAIGAAIQGGVLAGDVTDVLLLDVTPLSLGIETLGGVFTKLINRNTTIPTKKSQVFSTAADGQTQVEIKVCQGEREMAGDNKLLGQFTLIGIPPAPRGVPQIEVTFDIDANGIVHVSAKDKGTGRERQIVIQSSGGLSKDDIEENMVKNAEKYAEEDRRKKERV					reduction of rotational behavior; also recorded: effective	
CRP40: SEQ ID NO:1, full-length human catecholamine-regulated protein, 40 kDa molecular chaperone, splice variant of mortalin (protein, listed as Homo sapiens) MDSSGPKHLNMKLTRAQFEGIVTDLIRRTIAPCQKAMQDAEVSKSDIGEVILVGGMTRMPKVQQTVQDLFGRAPSKAVNPDEAVAIGAAIQGGVLAGDVTDVLLLDVTPLSLGIETLGGVFTKLINRNTTIPTKKSQVFSTAADGQTQVEIKVCQGEREMAGDNKLLGQFTLIGIPPAPRGVPQIEVTFDIDANGIVHVSAKDKGTGREQQIVIQSSGGLSKDDIENMVKNAEKYAEEDRRKKERVEAVNMAEGIIHDTETKMEEFKDQLPADECNKLKEEISKMRELLARKDSETGENIRQAASSLQQASLKLFEMAYKKMASEREGSGSSGTGEQKEDQKEEKQ	partially preserves mitochondrial homeostasis and ROS levels	helps to maintain intracellular ATP levels and energy production; also recorded: partially preserve ATP levels and cell viability	significantly lower	binds apomorphine; also recorded: binds dopamine	alleviate rotational symptoms; also recorded: could correct movement impairments	binds DA with high capacity and low affinity; also recorded: binds dopamine with high capacity and low affinity
HSP47: heat shock protein 47, a 47 kDa collagen-specific chaperone used as negative control (protein, UniProt P50454 19-418, looked up) Serpin H1: AEVKKPAAAAAPGTAEKLSPKAATLAERSAGLAFSLYQAMAKDQAVENILVSPVVVASSLGLVSLGGKATTASQAKAVLSAEQLRDEEVHAGLGELLRSLSNSTARNVTWKLGSRLYGPSSVSFADDFVRSSKQHYNCEHSKINFRDKRSALQSINEWAAQTTDGKLPEVTKDVERTDGALLVNAMFFKPHWDEKFHHKMVDNRGFMVTRSYTVGVMMMHRTGLYNYYDDEKEKLQIVEMPLAHKLSSLIILMPHHVEPLERLEKLLTKEQLKIWMGKMQKKAVAISLPKGVVEVTHDLQKHLAGLGLTEAIDKNKADLSRMSGKKDLYLASVFHATAFELDTDGNPFDQDIYGREELRSPKLFYADHPFIFLVRDTQSGSLLFIGRLVRPKGDKMRDEL					does not elicit a correction of rotational behaviour	
P1P3: SEQ ID NO:2, P1P3 fragment of human CRP40 (11.1 kDa) (protein, listed as Homo sapiens) MDSSGPKHLNMKLTRAQFEGIVTDLIRRTIAPCQKAMQDAEVSKSDIGEVILVGGMTRMPKVQQTVQDLFGRAPSKAVNPDEAVAIGAAIQGGVLA					not effective	
